Where a chain is given by its changes, count along the chain named.
What was measured:
human CD33 [1] = biological target: T1, human CD33 (human, UniProt P20138 18-364); assay: cell-based or functional assay
human CD33 [2] = biological target: T1, human CD33; assay: cell-based or functional assay; remark: listed apart in the source
human CD33 [3] = biological target: T1, human CD33; assay: cell-based or functional assay; remark: listed apart in the source
cyno CD33 = cyno CD33 (cynomolgus monkey); assay: cell-based or functional assay
cyno CD33 (cynomolgus monkey), sequence (chain, as listed by the source limits assumed): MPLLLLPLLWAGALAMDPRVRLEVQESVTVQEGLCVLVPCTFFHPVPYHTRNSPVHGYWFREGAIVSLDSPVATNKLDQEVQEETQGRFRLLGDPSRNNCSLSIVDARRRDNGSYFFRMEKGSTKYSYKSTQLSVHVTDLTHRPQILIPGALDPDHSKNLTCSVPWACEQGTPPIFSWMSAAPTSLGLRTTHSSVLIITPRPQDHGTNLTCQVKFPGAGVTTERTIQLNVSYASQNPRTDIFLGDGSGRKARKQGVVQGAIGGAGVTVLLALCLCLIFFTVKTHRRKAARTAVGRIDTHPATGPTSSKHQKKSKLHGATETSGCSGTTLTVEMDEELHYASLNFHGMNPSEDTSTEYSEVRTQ

human CD33 [4] = biological target: T1, human CD33; assay: cell-based or functional assay; remark: listed apart in the source
human CD33 [5] = biological target: T1, human CD33; assay: cell-based or functional assay; remark: listed apart in the source
human CD33 [6] = biological target: T1, human CD33; assay: cell-based or functional assay; remark: listed apart in the source
Human CD33-V-HSA = biological target: T2, Human CD33-V-HSA (human); assay: SPRi off-rate screen, domain constructs
T2 construct: V domain of human CD33 fused to HSA (C58S) and six-histidine tag; also called C33W3; huCD33-V-HSA

Human CD33-C2-HSA = biological target: T3, Human CD33-C2-HSA (human); assay: SPRi off-rate screen, domain constructs
T3 construct: C2 domain of human CD33 fused to HSA (C58S) and six-histidine tag; also called C33W4; huCD33-C2-HSA

T1 sequence (P20138 18-364 limits assumed): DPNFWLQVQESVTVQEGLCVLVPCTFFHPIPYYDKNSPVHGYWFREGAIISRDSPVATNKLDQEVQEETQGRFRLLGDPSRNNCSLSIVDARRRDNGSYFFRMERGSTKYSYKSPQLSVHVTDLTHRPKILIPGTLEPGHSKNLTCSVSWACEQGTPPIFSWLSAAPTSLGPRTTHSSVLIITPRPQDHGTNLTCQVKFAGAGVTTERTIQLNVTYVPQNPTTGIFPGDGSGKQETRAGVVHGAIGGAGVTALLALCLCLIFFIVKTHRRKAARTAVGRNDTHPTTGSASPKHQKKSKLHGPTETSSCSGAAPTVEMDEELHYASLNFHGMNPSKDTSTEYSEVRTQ

B1: C33B48.CLF (antibody, human IgG1, lambda)
heavy: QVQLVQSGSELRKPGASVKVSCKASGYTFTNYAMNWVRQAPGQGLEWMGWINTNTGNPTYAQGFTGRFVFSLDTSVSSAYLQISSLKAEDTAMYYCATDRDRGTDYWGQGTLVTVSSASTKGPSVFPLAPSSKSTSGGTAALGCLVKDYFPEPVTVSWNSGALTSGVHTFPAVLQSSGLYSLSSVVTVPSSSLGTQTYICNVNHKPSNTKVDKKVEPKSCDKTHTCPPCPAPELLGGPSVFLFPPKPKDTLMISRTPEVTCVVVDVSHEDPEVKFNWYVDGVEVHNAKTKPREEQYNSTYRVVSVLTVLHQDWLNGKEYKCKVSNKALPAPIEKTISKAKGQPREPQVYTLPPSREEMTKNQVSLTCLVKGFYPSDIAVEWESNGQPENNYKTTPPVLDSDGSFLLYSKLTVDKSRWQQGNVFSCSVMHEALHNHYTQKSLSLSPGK
light: QSALTQPASVSGSPGQSITISCTGTSSDVGDYNYVSWYQQHPGKVPKLMIYDVSNRPSGVSNRFSGSMSGNTASLTISGLQAEDEADYYCSSYSSSSALEVFGGGTKLTVLGQPKAAPSVTLFPPSSEELQANKATLVCLISDFYPGAVTVAWKADSSPVKAGVETTTPSKQSNNKYAASSYLSLTPEQWKSHRSYSCQVTHEGSTVEKTVAPTECS
modifications: IgG1 low fucose Fc glycan
B1 was tested, and the “EC50 ADCC (nM), MOLM-13 target cells, human NK effector cells” value (human CD33 [1]) was 0.023 nM and the “EC50 ADCC (nM), MV4-11 target cells, human NK effector cells” value (human CD33 [1]) was 0.113 nM.

B2: C33B912.CLF (antibody, human IgG1, kappa, V domains shown)
VH: EVQLVESGGGLVQPGRSLRLSCAASGFTFDDYAMHWVRQAPGKGLEWVSGIGWSGGSIVYADSVKGRFKISRDNAKNSLYLQMNSLRAEDTALYYCAKDSPYGDFFDYWGQGTLVTVSS
VL: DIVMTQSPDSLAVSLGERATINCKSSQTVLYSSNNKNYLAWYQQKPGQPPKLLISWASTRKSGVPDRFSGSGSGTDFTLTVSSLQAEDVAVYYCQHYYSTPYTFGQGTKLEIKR
modifications: IgG1 low fucose Fc glycan
With B2 the “EC50 ADCC (nM), MOLM-13 target cells, human NK effector cells” value (human CD33 [1]) was 0.292 nM and the “EC50 ADCC (nM), MV4-11 target cells, human NK effector cells” value (human CD33 [1]) was 2.01 nM.

B3: C3CB189 (bispecific antibody, human IgG4 S228P, kappa, lambda, F234A L235A)
heavy 1: not shown
light 1: not shown
heavy 2: QVQLQQSGPRLVRPSQTLSLTCAISGDSVFNNNAAWSWIRQSPSRGLEWLGRTYYRSKWLYDYAVSVKSRITVNPDTSRNQFTLQLNSVTPEDTALYYCARGYSSSFDYWGQGTLVTVSSASTKGPSVFPLAPCSRSTSESTAALGCLVKDYFPEPVTVSWNSGALTSGVHTFPAVLQSSGLYSLSSVVTVPSSSLGTKTYTCNVDHKPSNTKVDKRVESKYGPPCPPCPAPEAAGGPSVFLFPPKPKDTLMISRTPEVTCVVVDVSQEDPEVQFNWYVDGVEVHNAKTKPREEQFNSTYRVVSVLTVLHQDWLNGKEYKCKVSNKGLPSSIEKTISKAKGQPREPQVYTLPPSQEEMTKNQVSLTCLVKGFYPSDIAVEWESNGQPENNYKTTPPVLDSDGSFLLYSKLTVDKSRWQEGNVFSCSVMHEALHNHYTQKSLSLSLGK
light 2: QSALTQPASVSGSPGQSITISCTGTSSNIGTYKFVSWYQQHPDKAPKVLLYEVSKRPSGVSSRFSGSKSGNTASLTISGLQAEDQADYHCVSYAGSGTLLFGGGTKLTVLGQPKAAPSVTLFPPSSEELQANKATLVCLISDFYPGAVTVAWKADSSPVKAGVETTTPSKQSNNKYAASSYLSLTPEQWKSHRSYSCQVTHEGSTVEKTVAPTECS
With B3 the “IFN-gamma release, Median EC50” value (human CD33 [2]) was 0.16 nM, the “IL-1beta release, Median EC50” value (human CD33 [2]) was 0.045 nM and the “IL-2 release, Median EC50” value (human CD33 [2]) was 0.346 nM. The “IL-4 release, Median EC50” value (human CD33 [2]) was 0.078 nM, the “IL-8 release, Median EC50” value (human CD33 [2]) was 0.042 nM and the “IL-10 release, Median EC50” value (human CD33 [2]) was 0.123 nM. For the same binder, the “IL-13 release, Median EC50” value (human CD33 [2]) was 0.034 nM, the “TNF-alpha release, Median EC50” value (human CD33 [2]) was 0.208 nM and the “Primary AML Cell Killing EC50 (nM), ex vivo AML patient whole blood” value (“Primary AML Cell Killing EC50 (nM)” for short) (human CD33 [3]) was 0.578 nM. The “CD33^+ CD14^+ Killing EC50 (nM), ex vivo cynomolgus whole blood” value (cyno CD33) was 3.6 nM, the “T cell activation EC50 (nM), ex vivo cynomolgus whole blood” value (cyno CD33) was 0.02 nM and the “CD33^+ CD14^+ Killing EC50 (nM), ex vivo human whole blood” value (human CD33 [4]) was 1.16 nM. For the same binder, the “MOLM13 Killing EC50 (nM), ex vivo human whole blood” value (human CD33 [4]) was 0.168 nM.

B4: C3CB12 (bispecific antibody, human IgG4 S228P, lambda, F234A L235A)
heavy 1: not shown
light 1: SYELTQPPSVSVSPGQTASITCSGNKLGAKFASWYQQKPGQSPVLVIYQDNKRPSGIPERFSGSNSGNTATLTISGTQAVDEADYYCQAWDSSTVVFGGGTKLTVLGQPKAAPSVTLFPPSSEELQANKATLVCLISDFYPGAVTVAWKADSSPVKAGVETTTPSKQSNNKYAASSYLSLTPEQWKSHRSYSCQVTHEGSTVEKTVAPTECS
heavy 2: EVQLVESGGGLVQPGGSLRLSCAASGFTFNTYAMNWVRQAPGKGLEWVARIRSKYNNYATYYAASVKGRFTISRDDSKNSLYLQMNSLKTEDTAVYYCARHGNFGNSYVSWFAYWGQGTLVTVSSASTKGPSVFPLAPCSRSTSESTAALGCLVKDYFPEPVTVSWNSGALTSGVHTFPAVLQSSGLYSLSSVVTVPSSSLGTKTYTCNVDHKPSNTKVDKRVESKYGPPCPPCPAPEAAGGPSVFLFPPKPKDTLMISRTPEVTCVVVDVSQEDPEVQFNWYVDGVEVHNAKTKPREEQFNSTYRVVSVLTVLHQDWLNGKEYKCKVSNKGLPSSIEKTISKAKGQPREPQVYTLPPSQEEMTKNQVSLTCLVKGFYPSDIAVEWESNGQPENNYKTTPPVLDSDGSFLLYSKLTVDKSRWQEGNVFSCSVMHEALHNHYTQKSLSLSLGK
light 2: QTVVTQEPSLTVSPGGTVTLTCRSSTGAVTTSNYANWVQQKPGQAPRGLIGGTNKRAPGTPARFSGSLLGGKAALTLSGVQPEDEAEYYCALWYSNLWVFGGGTKLTVLGQPKAAPSVTLFPPSSEELQANKATLVCLISDFYPGAVTVAWKADSSPVKAGVETTTPSKQSNNKYAASSYLSLTPEQWKSHRSYSCQVTHEGSTVEKTVAPTECS
B4 was tested, and the “Primary AML Cell Killing EC50 (nM)” value (human CD33 [3]) was 2.63 nM and the “Cytotoxicity EC50 (nM), T-cell mediated cytotoxicity of MOLM-13” value (“Cytotoxicity EC50 (nM)” for short) (human CD33 [5]) was 0.268 nM.

B5: C3CB7 (bispecific antibody, human IgG4 S228P, lambda, F234A L235A)
heavy 1: not shown
light 1: B1 light
heavy 2: B4 heavy 2
light 2: B4 light 2
For B5, the “Primary AML Cell Killing EC50 (nM)” value (human CD33 [3]) was 0.332 nM and the “Cytotoxicity EC50 (nM)” value (human CD33 [5]) was 0.0213 nM.

B6: C3CB88 (bispecific antibody, human IgG4 S228P, kappa, lambda, F234A L235A)
heavy 1: not shown
light 1: not shown
heavy 2: B4 heavy 2
light 2: B4 light 2
For B6, the “Primary AML Cell Killing EC50 (nM)” value (human CD33 [3]) was 0.672 nM, the “CD33^+ CD14^+ Killing EC50 (nM), ex vivo cynomolgus whole blood” value (cyno CD33) was 0.89 nM and the “T cell activation EC50 (nM), ex vivo cynomolgus whole blood” value (cyno CD33) was 0.02 nM. For the same binder, the “CD33^+ CD14^+ Killing EC50 (nM), ex vivo human whole blood” value (human CD33 [4]) was 0.506 nM, the “MOLM13 Killing EC50 (nM), ex vivo human whole blood” value (human CD33 [4]) was 0.671 nM and the “Cytotoxicity EC50 (nM)” value (human CD33 [5]) was 0.11 nM.

B7: C3CB97 (bispecific antibody, human IgG4 S228P, lambda, F234A L235A)
heavy 1: not shown
light 1: B1 light
heavy 2: B3 heavy 2
light 2: B3 light 2
With B7 the “Primary AML Cell Killing EC50 (nM)” value (human CD33 [3]) was ~0.232 nM.

B8: C33B782 (antibody, human IgG4 S228P, lambda, F234A L235A)
heavy: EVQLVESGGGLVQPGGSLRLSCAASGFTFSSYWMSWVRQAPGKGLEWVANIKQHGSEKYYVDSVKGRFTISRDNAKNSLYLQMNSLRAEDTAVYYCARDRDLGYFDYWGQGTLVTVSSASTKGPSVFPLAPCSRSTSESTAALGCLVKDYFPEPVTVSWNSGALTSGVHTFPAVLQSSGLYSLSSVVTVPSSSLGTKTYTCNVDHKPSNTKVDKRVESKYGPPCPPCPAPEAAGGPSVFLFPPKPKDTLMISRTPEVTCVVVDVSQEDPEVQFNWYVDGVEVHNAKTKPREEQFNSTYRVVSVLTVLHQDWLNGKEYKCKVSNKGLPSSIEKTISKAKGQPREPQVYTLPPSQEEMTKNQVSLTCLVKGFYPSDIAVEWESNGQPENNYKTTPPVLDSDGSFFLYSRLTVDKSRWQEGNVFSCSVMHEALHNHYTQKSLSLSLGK
light: B4 light 1
In the case of B8, the “EC50 (nM), CD33 internalization assay (Protein A-MMAF cell viability, MOLM13)” value (“EC50 (nM), CD33 internalization assay” for short) (human CD33 [6]) is reported as 0.88 nM.

B9: C33B836 (antibody, human IgG4 S228P, lambda, F234A L235A)
heavy: not shown
light: B1 light
B9 was tested, and the “EC50 (nM), CD33 internalization assay” value (human CD33 [6]) was 0.04 nM.

B10: C33B937 (antibody, human IgG4 S228P, lambda, F234A L235A, V domains shown)
VH: QVQLVESGGGVVQPGRSLRLSCVASGFTFSSYGMHWVRQAPGKGLEWVAVISYDGSNKYYADSVKGRFTISRDNSKNTLYLQMNSLRAEGTAVYYCAKDFRSFDWLPPDSASYHGMDVWGQGTTVTVSS
VL: SYELTQPPSVSVSPGQTASITCSGDKLGDKYASWYQQKPGQSPVLVIYQDGKRPSGIPERFSGSNFGNKATLTISGTQAMDEADYYCQAWDRNTVVFGGGTKLTVLG
For B10, the “EC50 (nM), CD33 internalization assay” value (human CD33 [6]) was 1.92 nM.

B11: C33B778 (antibody, human IgG4 S228P, lambda, F234A L235A)
heavy: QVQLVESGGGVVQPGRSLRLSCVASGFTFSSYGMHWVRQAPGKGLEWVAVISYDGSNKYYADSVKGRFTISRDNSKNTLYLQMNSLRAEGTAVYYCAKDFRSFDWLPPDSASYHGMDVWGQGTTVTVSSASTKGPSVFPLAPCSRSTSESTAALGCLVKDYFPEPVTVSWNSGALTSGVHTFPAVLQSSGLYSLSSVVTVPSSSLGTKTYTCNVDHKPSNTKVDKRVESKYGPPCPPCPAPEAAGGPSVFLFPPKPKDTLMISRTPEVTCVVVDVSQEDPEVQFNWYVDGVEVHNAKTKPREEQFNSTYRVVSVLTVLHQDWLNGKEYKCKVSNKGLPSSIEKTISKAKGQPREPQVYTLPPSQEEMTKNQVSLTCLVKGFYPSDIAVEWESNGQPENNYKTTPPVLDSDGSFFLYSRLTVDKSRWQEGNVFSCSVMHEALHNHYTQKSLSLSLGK
light: B4 light 1 with N25D, A29D, F31Y, S33C, N51G, S66F, T69K, V80M, S92R, S93N
notes: huIgG4 PAA; OMNIRat campaign; also called C33H66/C33L60
B11: no binding (Human CD33-V-HSA).

B12: C33B836 (antibody, human IgG4 S228P, lambda, F234A L235A)
heavy: not shown
light: B1 light
notes: huIgG4 PAA; OMNIRat campaign; also called C33H80/C33L73
B12: no binding (Human CD33-C2-HSA).
